Test results from article PMC3843485.

Molecular target: Pseudomonas aeruginosa cytoplasmic heme binding protein PhuS, apo form (Pseudomonas aeruginosa)
Experiment: crystal structure

Question: Which stoichiometry N does the source give for “Pseudomonas aeruginosa cytoplasmic heme binding protein PhuS, apo form (natural protein)” here?
Answer: 2
